# Measurements published in PMC8514705.
# Target: recombinant DR4 extracellular domain (UniProt O00220)
# Sequence (O00220 24-239): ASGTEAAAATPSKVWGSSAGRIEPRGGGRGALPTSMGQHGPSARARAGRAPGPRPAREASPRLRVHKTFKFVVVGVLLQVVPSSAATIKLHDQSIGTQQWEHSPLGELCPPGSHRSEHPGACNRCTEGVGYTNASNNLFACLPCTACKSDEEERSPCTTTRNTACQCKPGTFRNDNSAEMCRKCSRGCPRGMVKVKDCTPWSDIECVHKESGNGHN
substance,measurement,value
"TRAIL (tumor necrosis factor-associated ligand inducing apoptosis), recombinant, amino acid residues 114-280 (from UniProt P50591 114-280)","decrease of surface DR4 on HCT116 and HT-29 cells with 1,000 ng/ml TRAIL, time course, flow cytometry",90%
